Data taken from patent US8192734B2, “Compositions and methods for bone strengthening” (Cornell University, priority 2007, dated 2012).

Legend:
Format in all cases: in vivo, pig
[1] = tested on: weanling pigs fed high P diet; assay: Examples 4-8: femoral and metacarpal mechanical properties, dimensions, cortical thickness; conditions: 8 wk
Protocol: As in Examples 1-3, the animal protocol was approved by Cornell Animal Care and Use Committee. An 8-week feeding trial was conducted at Cornell University Swine Research Farm. […] Group 2 were fed a corn-soy basal diet (BD)+0.25% inorganic phosphorus (iP, dicalcium phosphate). Group 2 were fed BD+0.35% iP. […] The BD (Table 7) contained adequate levels of all nutrients except for P^(63), and 0.25% iP is the supplementation level recommended by NRC^(24) to meet the P needs of this age of pigs. […] Pigs were housed in an environmentally-controlled barn (20-25° C.; 12-light: 12-dark cycle), and given free access to feed and water.
Growth performance of pigs was monitored at two week intervals. Blood samples of all individual pigs (fasted overnight for 8 h) were collected at initial (week 0) and then bi-weekly from the anterior vena cava using 5-mL heparin syringes to assay for concentrations of plasma iP^(73), Ca and Sr^(63). At the end of experiment, 5 pigs (2 male and 3 female) from each group were killed by electrical stunning and exsanguination. Both left and front right legs from each animal were removed from the body.
After the skin and major muscles were removed, two left legs were subjected to X-ray radiography using a Faxitron machine (Model 43855A; Hewlett Packard, McMinnville, Oreg., USA). Bone radiographs of femur and metacarpals were quantified by the kodac software. The software counted the total number of pixels. Thereafter, the 3rd and 4th metacarpals and femurs were collected to measure length, weight, height, and width after removing the remaining muscle and connective tissue. After the X-ray analysis, the two left legs were used for bone mechanical and mineral testing. Bone mechanical properties were determined by a three-point bending test (ASAE Standard S459 1992) using an Instron 4500 Machine Universal Testing Instrument (Model 1122, Instron, Canton, Mass.) with Instron Series IX Automated Materials Testing System Software (version 4.05). During testing, force was applied to the center of the bone held by supports 2.0 cm apart for metacarpals and 3.3 cm apart for femurs. The crosshead speed was set at 50 mm/min and the sampling rate was at 10 points/sec. The extrinsic parameters (stiffness/slope, maximum load, energy to break, maximum displacement) were derived from the force-displacement curve. Bone breaking strength was calculated with the adjustment of bone weight, and the average strength of the 3rd and 4th metacarpal was used as the metacarpal strength for each pig.
After the above mechanical tests, midshaft sections of both femur and metacarpus were cut and washed with de-ionized water. The cortical thickness of both bones was measured by slide caliper in the midshaft. Cortical and cancellous bones were separated for total ash and mineral analysis. A 3-cm long and 3-mm thick midshaft of femur and 1-cm long and 1.5-mm thick midshaft of metacarpus were used for cortical ash analysis. For cancellous bone, sponge-like bone from 3-cm below the growth plate of femur and 1.5-cm below the growth plate of metacarpus were collected. For ash analysis, bones were oven-dried at 110° C. for 24 h, and incinerated in a muffle furnace at 550° C. for 96 h. Concentrations of individual elements in the ash were measured using inductively coupled argon plasma spectrophotometer (ICAP 61E Trace Analyzer, Thermo Jarell Ash corporation, Franklin, Mass.)^(63), and were expressed on ash basis.

[2] = tested on: pigs fed P-adequate corn-soybean meal basal diet; assay: Expt 2: femur geometrical and strength properties
Protocol: A three-point bending test was conducted on the dissected bones to generate load-deformation curves with an Instron Model 5566 (Norwood, Mass.). Mechanical properties of bones were calculated using formula as previously described^(29). Bone cross sections were cut at the mid-point of loading and used to determine area moment of inertia. Cross sections were submersed for 5 min in a 0.4 mol/L sodium hypochlorite solution to remove periosteum and marrow tissue, and then embedded in blue clay (Play-Doh, Hasbro, Pawtucket, R.I.) to prevent depth-of-field distortions and to enhance contrasts. The embedded sections were scanned with a flat-bed scanner (Epson Perfection Model 3490, Long Beach, Calif.) and analyzed using Image J software (30) to measure the x-y coordinates of bone pixels.

[3] = tested on: weanling pigs fed high P diet; assay: Examples 4-8: cortical and cancellous bone ash and mineral profile; conditions: 8 wk, 0.35% iP + Sr 50 mg/kg + phytase 3,400 U/kg
[4] = tested on: pigs fed P-adequate corn-soybean meal basal diet; assay: Expt 2: BMC, BMD and bone area by dual energy X-ray absorptiometry
Protocol: In Experiment 2, bone mineral content (BMC, g) and bone mineral density (BMD, g/cm^2) of 3rd and 4th metatarsals from the left foot and femur from the left leg of each pig were measured. After being thawed to room temperature, entire bones were placed on a rice bag (to remove background effects) and scanned by dual energy X-ray absorptiometry using the GE Lunar Prodigy instrument (GE Lunar, Prodigy, Madison Wis.) in the small animal scan mode. Values of BMC and BMD were predicted by analysis of scans using Prodigy software (version 10.10.038).

[5] = tested on: pigs fed P-adequate corn-soybean meal basal diet; assay: Expt 1: metatarsal mineral concentrations (ICP)
[6] = 0.35% iP + Sr 50 mg/kg + phytase 3,400 U/kg, P<0.05
[7] = phytase 2000 U/kg and/or Sr 50 mg/kg, n=6
[8] = length x width by DXA, diets with phytase
[9] = main effect, phytase 2,000 U/kg or Sr 50 mg/kg

B1: Phytase: Escherichia coli AppA2 phytase (OptiPhos, JBS United, Inc.), added to diets at feed mixing; AppA2 is SEQ ID NO: 2 (protein, listed as Escherichia coli)
chain: MKAILIPFLSLLIPLTPQSAFAQSEPELKLESVVIVSRHGVRAPTKATQLMQDVTPDAWPTWPVKLGWLTPRGGELIAYLGHYQRQRLVADGLLAKKGCPQPGQVAIIADVDERTRKTGEAFAAGLAPDCAITVHTQADTSSPDPLFNPLKTGVCQLDNANVTDAILSRAGGSIADFTGHRQTAFRELERVLNFSQLNLCLNREKQDESCSLTQALPSELKVSADNVSLTGAVSLASMLTEIFLLQQAQGMPEPGWGRITDSHQWNTLLSLHNAQFYLLQRTPEVARSRATPLLDLIMAALTPHPPQKQAYGVTLPTSVLFIAGHDTNLANLGGALELNWTLPGQPDNTPPGGELVFERWRRLSDNSQWIQVSLVFQTLQQMRDKTPLSLNTPPGEVKLTLAGCEERNAQGMCSLAGFTQIVNEARIPACSL
Question: B1 was tested. Which “greater cortical bone thickness of femur vs 0.35% iP” value [1, 6] did it give?
Answer: 32%

Question: What about the “greater cortical bone thickness of metacarpus vs 0.35% iP” value [1, 6] of the same molecule?
Answer: 7%

Question: And the “greater energy to break of femur vs 0.35% iP” value [1, 6]?
Answer: 26%

Question: And the “greater energy to break of metacarpus vs 0.35% iP” value [1, 6]?
Answer: 14%

Question: And the “greater maximal load of femur vs 0.35% iP” value [1, 6]?
Answer: 38%

Question: And the “greater maximal load of metacarpus vs 0.35% iP” value [1, 6]?
Answer: 20%

Question: And the “greater stiffness of femur vs 0.35% iP” value [1, 6]?
Answer: 12%

Question: And the “greater stiffness of metacarpus vs 0.35% iP” value [1, 6]?
Answer: 8%

Question: What about the “femoral Cross-sectional area” value ([1]; 0.35% iP + phytase 3400 U, n=5) of the same molecule?
Answer: 199.7 mm^2

Question: What about the “femoral Height” value ([1]; 0.35% iP + phytase 3400 U, n=5) of the same molecule?
Answer: 21.8 mm

Question: And the “femoral Length” value ([1]; 0.35% iP + phytase 3400 U, n=5)?
Answer: 143.7 mm

Question: And the “femoral Max. Displacement” value ([1]; 0.35% iP + phytase 3400 U, n=5)?
Answer: 4.9 mm

Question: And the “femoral Weight” value ([1]; 0.35% iP + phytase 3400 U, n=5)?
Answer: 202.2 g

Question: And the “femoral Width” value ([1]; 0.35% iP + phytase 3400 U, n=5)?
Answer: 23.3 mm

Question: What about the “metacarpal Height” value ([1]; 0.35% iP + phytase 3400 U, n=5) of the same molecule?
Answer: 14.8 mm

Question: And the “metacarpal Length” value ([1]; 0.35% iP + phytase 3400 U, n=5)?
Answer: 60.5 mm

Question: And the “metacarpal Max. Displacement” value ([1]; 0.35% iP + phytase 3400 U, n=5)?
Answer: 8.9 mm

Question: What about the “metacarpal Weight” value ([1]; 0.35% iP + phytase 3400 U, n=5) of the same molecule?
Answer: 19.2 g

Question: And the “metacarpal Width” value ([1]; 0.35% iP + phytase 3400 U, n=5)?
Answer: 15.0 mm

Question: What about the “enhancement of yield bending moment of femur” value ([2]; P<0.05) of the same molecule?
Answer: 19%

Question: And the “larger cross-sectional area of femur vs diets without phytase” value ([2]; P=0.06)?
Answer: 11%

Question: What about the “femur Cross-sectional area” value [2, 7] of the same molecule?
Answer: 165 mm^2

Question: What about the “femur Cross-sectional radius” value [2, 7] of the same molecule?
Answer: 9.0 mm

Question: And the “femur Maximum bending moment” value [2, 7]?
Answer: 2263 kg × mm

Question: What about the “femur Maximum stress” value [2, 7] of the same molecule?
Answer: 4.0 kg/mm^2

Question: And the “femur Modulus of elasticity” value [2, 7]?
Answer: 49 kg/mm^2

Question: What about the “femur Moment of inertia” value [2, 7] of the same molecule?
Answer: 5419 mm^4

Question: What about the “femur Strain” value [2, 7] of the same molecule?
Answer: 0.06

Question: What about the “femur Yield bending moment” value [2, 7] of the same molecule?
Answer: 1507 kg-mm

Question: What about the “femur Yield stress” value [2, 7] of the same molecule?
Answer: 2.7 kg/mm^2

Question: And the “decrease of Ca concentration in cancellous bones, femur and metacarpus” value [3]?
Answer: 11 to 19%

Question: What about the “total ash concentration of cortical bone, femurs” value [3] of the same molecule?
Answer: not altered

Question: What about the “elevation of Sr concentration in cancellous bone, femur” value ([3]; P<0.002) of the same molecule?
Answer: 127 fold

Question: What about the “increase in Fe concentration of cancellous bone, metacarpus” value ([3]; P<0.05) of the same molecule?
Answer: 22%

Question: And the total bone area of femur [4, 8]?
Answer: 45.8 ± 0.7 cm²

Question: What about the total bone area of metatarsal [4, 8] of the same molecule?
Answer: 9 ± 0.2 cm²

Question: And the “increase of total bone area of femur” value ([4]; main effect, P<0.05)?
Answer: 5%

Question: And the “increase of total bone area of metatarsal” value ([4]; main effect, P<0.05)?
Answer: 7%

Question: And the “elevation of BMD of the two bones (metatarsal, femur)” value [4, 9]?
Answer: 9 to 11%

Question: And the “enhancement of BMC in both bones (metatarsal, femur)” value [4, 9]?
Answer: 14 to 15%

Question: And the “higher Sr concentration in metatarsals vs BD” value ([5]; BD + phytase 2,000 U/kg, 6 wk, P<0.05)?
Answer: 7%

Question: And the “metatarsal Ca concentration” value ([5]; phytase 2000 U/kg, n=8)?
Answer: 217.3 g/kg

Question: What about the “metatarsal Cr concentration” value ([5]; phytase 2000 U/kg, n=8) of the same molecule?
Answer: 6.4 mg/kg

Question: And the “metatarsal Fe concentration” value ([5]; phytase 2000 U/kg, n=8)?
Answer: 15.7 mg/kg

Question: What about the “metatarsal Mg concentration” value ([5]; phytase 2000 U/kg, n=8) of the same molecule?
Answer: 3.6 g/kg

Question: What about the “metatarsal Mn concentration” value ([5]; phytase 2000 U/kg, n=8) of the same molecule?
Answer: 1.1 mg/kg

Question: What about the “metatarsal Na concentration” value ([5]; phytase 2000 U/kg, n=8) of the same molecule?
Answer: 6.2 g/kg

Question: And the “metatarsal P concentration” value ([5]; phytase 2000 U/kg, n=8)?
Answer: 109.2 g/kg

Question: What about the “metatarsal S concentration” value ([5]; phytase 2000 U/kg, n=8) of the same molecule?
Answer: 1.2 g/kg

Question: And the “metatarsal Sr concentration” value ([5]; phytase 2000 U/kg, n=8)?
Answer: 62.8 mg/kg

Question: What about the “metatarsal Zn concentration” value ([5]; phytase 2000 U/kg, n=8) of the same molecule?
Answer: 176.1 mg/kg
